Assay results from PMC2191386 (The Journal of Experimental Medicine, 1994).

Target: T1, LFA-3, purified (human (endogenous in JY), UniProt P19256 29-250)
T1 sequence (looked up): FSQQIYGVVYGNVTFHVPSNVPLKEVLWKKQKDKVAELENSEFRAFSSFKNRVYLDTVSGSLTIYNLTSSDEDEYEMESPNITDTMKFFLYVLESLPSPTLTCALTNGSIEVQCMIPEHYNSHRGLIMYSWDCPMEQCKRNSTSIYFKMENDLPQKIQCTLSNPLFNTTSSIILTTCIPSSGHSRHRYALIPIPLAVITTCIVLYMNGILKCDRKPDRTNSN
Assay: cell adhesion to purified protein

B1: CD2 on SKW3 cells (receptor, human (endogenous in SKW3), UniProt P06729 25-351, looked up)
chain: KEITNALETWGALGQDINLDIPSFQMSDDIDDIKWEKTSDKKKIAQFRKEKETFKEKDTYKLFKNGTLKIKHLKTDDQDIYKVSIYDTKGKNVLEKIFDLKIQERVSKPKISWTCINTTLTCEVMNGTDPELNLYQDGKHLKLSQRVITHKWTTSLSAKFKCTAGNKVSKESSVEPVSCPEKGLDIYLIIGICGGGSLLMVFVALLVFYITKRKKQRSRRNDEELETRAHRVATEERGRKPHQIPASTPQNPATSQHPPPPPGHRSQAPSHRPPPPGHRVQHQPQKRPPAPSGTQVHQQKGPPLPRPRVQPKPPHGAAENSLSPSSN
- fold increase of cell binding on PMA stimulation: 3 fold
